Data from patent US20050069887A1, “Dna synthesis promoters dna polymerase-associated factors and utilization thereof” (priority 2001, published 2005).
Read-outs that look alike come from different tables or passages of the source.

Assays:
KOD-plus DNA polymerase = target: T1, KOD-plus DNA polymerase (Thermococcus kodakarensis, UniProt P77933, DEL407-766/DEL853-1389); format: biochemical, Thermococcus kodakaraensis KOD1; details: 2 mM potassium oxalate, FIG. 14
T1 construct: purchased Toyobo
Procedure: Oxalate ion and DMSO were investigated for their synergistic effectiveness for hot start enzyme in amplification of a target DNA which is difficult to amplify by usual PCR, using a KOD-plus DNA polymerase, i.e., hot start enzyme. Potassium oxalate was added to the PCR buffer supplied with KOD-plus (TOYOBO CO., LTD.) to attain a final concentration of 2 mM. Also used were 0.2 mM dNTPs and […] of a pair of primers of SEQ ID Nos:18 and 19, and 1.0 U KOD-plus DNA polymerase. 0.5 μL of cDNA obtained by reverse transcription of 500 ng of total RNA derived from human cell line K562 with ThermoScript (Invitrogen) was used as a template. This reaction mixture was subjected to PCR by using GeneAmp2400 (PE Applied Biosystems) to investigate the influence on the PCR results of varying the concentration of DMSO. The PCR conditions were as follows: 1 preliminary reaction of 94° C. for 2 minutes, and then 40 cycles of 94° C. for 15 seconds, 60° C. for 30 seconds and 68° C. for 9 minutes.

pMol 21 = details: PCR product fidelity, rpsL / pMol 21 method; cited from earlier work
KOD DNA polymerase [1] = target: T2, KOD DNA polymerase (Thermococcus kodakarensis, UniProt P77933, DEL407-766/DEL853-1389); assay: DNA elongation by KOD DNA polymerase on primed M13 mp18 DNA (Examples 3-10, 3-11); format: biochemical, Thermococcus kodakaraensis KOD1; details: for elongation (size of synthesized DNA): 75° C.
Procedure: 150 fmol of KOD DNA polymerase was reacted with 1.5 pmol of DNA obtained by annealing an M13 P7 primer (SEQ ID NO:59) to M13 mp18 DNA (circular single-stranded DNA) to determine processivity. 450 fmol, 1.5 pmol, 4.5 pmol and 15 pmol samples of KOD-PCNA obtained in Example 3-6 were added to reaction buffer solutions [20 mM Tris-HCl (pH 7.5 at 75° C.), 10 mM KCl, 6 mM (NH4)2SO4, 2 mM MgCl2, 0.1% Triton X-100, 10 μg/ml BSA]. The mixtures were reacted at 75° C. for varying times: 30 seconds, 60 seconds and 120 seconds, to investigate their degrees of elongation. In the course of the elongation reaction DNA samples were withdrawn at the above reaction times and added to the same quantity of a stop solution (60 mM EDTA, […], 0.1% BPB, 30% glycerol). The obtained DNA samples were separated by 1% alkaline agarose electrophoresis and analyzed to determine the sizes of the synthesized DNA.
KOD DNA polymerase reactions were conducted in a similar manner to Example 3-10 either in the presence of KOD-PCNA or in the copresence of KOD-PCNA and KOD-RFC by using an circular single stranded DNA, which was annealed with a primer, as a substrate. […] This is presumably because almost all the KOD DNA polymerase molecules were available to react with PCNA in the presence of the RFC complex.

KOD Dash DNA polymerase = assay: PCR using mixed-type KOD Dash DNA polymerase with PCNA/RFC (Example 3-15); format: biochemical, Thermococcus kodakaraensis KOD1; details: 1 ng template, FIG. 34
Procedure: The effect produced by the combined use of KOD-PCNA protein and the KOD-RFC complex in PCR using a mixture of two kinds of DNA polymerases was investigated with the same target DNA and reaction solution as in Example 3-12
1 ng of genomic DNA derived from human cell line K562 was used as a template. KOD Dash DNA polymerase, which is a mixture of KOD DNA polymerase and KOD (exo-) DNA polymerase which has lost KOD 3′-5′ exonuclease activity, was used as the mixed-type DNA polymerase.

KOD DNA polymerase [2] = target: T2, KOD DNA polymerase; assay: PCR of 3.6 kb globin cluster DNA using KOD DNA polymerase with PCNA/RFC (Examples 3-12 to 3-14); format: biochemical, Thermococcus kodakaraensis KOD1
Procedure: The effect produced by the addition of KOD-PCNA protein on PCR amplification of a 3.6 kb DNA in a human […] cluster was investigated. The PCR buffer supplied with KOD-Plus (TOYOBO CO.,LTD), 0.2 mM dNTPs and 0.3 μM of a pair of primers of SEQ ID Nos:60 and 61 were used. 1 U KOD DNA polymerase was used as a heat-resistant DNA polymerase, and genomic DNA derived from human cell line K562 was used as a template. This reaction mixture was subjected to PCR using GeneAmp2400 (PE Applied Biosystems) to investigate the difference in the PCR results caused by the presence or absence of PCNA. The PCR conditions were as follows: 1 preliminary reaction of 94° C. for 2 minutes; and then 35 cycles of 94° C. for 20 seconds, 60° C. for 30 seconds and 68° C. for 4 minutes.
The effect produced by the addition of the KOD-RFC complex was investigated with the same target DNA and reaction solution as in Example 3-12. The amount of RFC effective for PCR was investigate by using 1 ng of genomic DNA derived from human cell line K562 as a template.
The effect produced by the addition of KOD-PCNA protein and KOD-RFC complex was investigated with the same target DNA and reaction solution as in Example 3-12. 1 ng of genomic DNA derived from human cell line K562 was used as a template and their optimal ratios were investigated.

[3] = PCNA added in 30 times the molar amount of DNA polymerase

C[S+](C)[O-] [DMSO, dimethylsulfoxide]
amplification of target DNA (KOD-plus DNA polymerase; 5% DMSO): sufficient amplification was observed
amplification of target DNA (KOD-plus DNA polymerase; in the presence of DMSO, cDNA template): an increase in amplification amount was observed

B1: KOD DNA polymerase: Thermococcus kodakaraensis KOD1-derived thermostable α-type DNA polymerase, SEQ ID NO: 1 (protein)
chain: MILDTDYITEDGKPVIRIFKKENGEFKIEYDRTFEPYFYALLKDDSAIEEVKKITAERHGTVVTVKRVEKVQKKFLGRPVEVWKLYFTHPQDVPAIRDKIREHPAVIDIYEYDIPFAKRYLIDKGLVPMEGDEELKMLAFDIETLYHEGEEFAEGPILMISYADEEGARVITWKNVDLPYVDVVSTEREMIKRFLRVVKEKDPDVLITYNGDNFDFAYLKKRCEKLGINFALGRDGSEPKIQRMGDRFAVEVKGRIHFDLYPVIRRTINLPTYTLEAVYEAVFGQPKEKVYAEEITTAWETGENLERVARYSMEDAKVTYELGKEFLPMEAQLSRLIGQSLWDVSRSSTGNLVEWFLLRKAYERNELAPNKPDEKELARRRQSYEGGYVKEPERGLWENIVYLDFRSLYPSIIITHNVSPDTLNREGCKEYDVAPQVGHRFCKDFPGFIPSLLGDLLEERQKIKKKMKATIDPIERKLLDYRQRAIKILANSYYGYYGYARARWYCKECAESVTAWGREYITMTIKEIEEKYGFKVIYSDTDGFFATIPGADAETVKKKAMEFLKYINAKLPGALELEYEGFYKRGFFVTKKKYAVIDEEGKITTRGLEIVRRDWSEIAKETQARVLEALLKDGDVEKAVRIVKEVTEKLSKYEVPPEKLVIHEQITRDLKDYKATGPHVAVAKRLAARGVKIRPGTVISYIVLKGSGRIGDRAIPFDEFDPTKHKYDAEYYIENQVLPAVERILRAFGYRKEDLRYQKTRQVGLSAWLKPKGT
modifications: Thermococcus kodakaraensis KOD1; KOD DNA polymerase
mutation rate (pMol 21): ≤ 0.1%
processivity (KOD DNA polymerase [1]; no PCNA added): ≥ 5 kb
elongation (size of synthesized DNA) (KOD DNA polymerase [1]; no PCNA added, reaction time 30 seconds): 1.2 kb
elongation (size of synthesized DNA) (KOD DNA polymerase [1]; no PCNA added, reaction time 60 seconds): 2.5 kb
elongation (size of synthesized DNA) (KOD DNA polymerase [1]; no PCNA added, reaction time 120 seconds): 5 kb
elongation rate (KOD DNA polymerase [1]; no PCNA, 1.5 pmol substrate DNA relative to 150 fmol DNA polymerase): about 40 bases per second

B2: RFC: replication factor C complex of KOD-mRFCS and KOD-RFCL derived from KOD1 (protein)
chain 1: MSEEVKEVKILEKPWVEKYRPQRLEDIVGQDHIVKRLKHYVKTGSMPHLLFAGPPGVGKTTAALALARELFGENWRHNFLELNASDERGINVIREKVKEFARTKPIGGASFKIIFLDEADALTQDAQQALRRTMEMFSNNVRFILSCNYSSKIIEPIQSRCAIFRFRPLRDEDIAKRIRYIAENEGLELTEEGLQAILYVAEGDLRRAINVLQAAAALDTKITDENVFLVASRARPEDVREMMTLALEGNFLKAREKLRDILLRQGLSGEDVLIQMHKEVFNLPIPEDKKVALADKIGEYNFRLVEGANEMIQLEALLAQFTIMGK
chain 2: MTEVPWVEKYRPRKLSEIVNQEKALEQVRAWVEAWLHGNPPKKKALLLAGPPGVGKTTTVYALANEYGFEVIELNASDERTYEKIERYVQAAYTMDILGKRRKLIFLDEADNIEPSGAREIAKLIDKARNPIIMSANHYWEVPREIRNKAQIVEYKRLTQRDIIKALVRILKREGLEVPKEVLYEIAKRANGDLRAAVNDLQTVVTGGVEDAVEVLAYRDTEKSVFQALAQLFATDNAKRAKLAVLGVDMMPNELLQWIDENVPYVYYRPEDIARAYEALSRADIYLGRAQRTGNYGLWKYATDMMTAGVAVAGIKKKGFVKIYPPKTIKLLTESKEERSLRDSVIKKIMSEMHMAKLEAIETLRYLRVIFENNPDLAAHFVVFLDLSEKEVEFITGDKEKAKTIWAKSMNIEKKLKKEGELEARAKEAERRVEAAEEEETMEAGEPEEELEEVEEEELTEEELEEAEEEIETVGKKEKPEKEKTKKGKQATLFDFLKK
amplification of the target DNA (KOD Dash DNA polymerase; further addition of RFC to PCNA): amplification of the target DNA was greatly clarified
amplification of the target DNA (KOD DNA polymerase [2]; 1.5 pmol further added to 10 fmol of PCNA, 1 ng template, FIG. 33): sufficient amplification was observed

B3: PCNA: proliferating cell nuclear antigen derived from Thermococcus kodakaraensis KOD1, SEQ ID NO: 2 (protein)
chain: MPFEVVFDGAKEFADLIATASNLIDEAAFKFTEEGISMRAMDPSRVVLIDLNLPESIFSKYEVEEPETIGINMDQFKKILKRGKAKDTLILRKGDENFLEITFEGTAKRTFRLPLIDVEELELELPELPFTAKVVLLGEVLKEGIKDASLVSDAIKFIAKENEFTMKAEGETNEVEIRLTLEDEGLLDLEVEEETKSAYGISYLSDMVKGIGKADEVILRFGNEMPLQMEYMIRDEGRLTFLLAPRVEE
modifications: Thermococcus kodakaraensis KOD1; KOD-PCNA
DNA elongation rate of KOD DNA polymerase (KOD DNA polymerase [1]; [3]): 120 bases per second
DNA elongation rate relative to the sample with no PCNA added (KOD DNA polymerase [1]; [3]): about 3 times
DNA elongation rate (KOD DNA polymerase [1]; only PCNA added, FIG. 30): an increase in the DNA elongation rate was observed
increase of DNA elongation rate compared to single use of KOD DNA polymerase (KOD DNA polymerase [1]; using KOD-PCNA): several fold
amplification of the target DNA (KOD Dash DNA polymerase; addition of PCNA): amplification of the target DNA was made somewhat clearer
amplification of the target DNA (KOD DNA polymerase [2]; 10 fmol of PCNA alone, 1 ng template, FIG. 33): amplification of the target DNA was barely observed together with a smear
amplification of the target DNA (KOD DNA polymerase [2]; 30 fmol of PCNA, 1 ng template DNA, FIG. 31): amplification of the target DNA was observed
amplification of the target DNA (KOD DNA polymerase [2]; PCNA added, 3 ng template DNA, FIG. 31): amplification of the target DNA was more clearly observed
increase of PCR sensitivity (KOD DNA polymerase [2]; addition of PCNA): at least 3 fold
